This data set in a line: soluble on expression in E. coli; label from the status in PepcDB or PDB records.
In the case of “MGSDKIHHHHHHMTNLGTAKNFWDATLYQDKHSFVWQYGEDLLQLLNPQPGEFILDLGCGTGQLTEKIAQSGAEVLGTDNAATMIEKARQNYPHLHFDVADARNFRVDKPLDAVFSNAMLHWVKEPEAAIASIHQALKSGGRFVAEFGGKGNIKYILEALYNALETLGIHNPQALNPWYFPSIGEYVNILEKQGFDVTYAALFNRPTTLAEGEFGMANWIQMFASAFLVGLTPDQQVQLIRKVEATLQDKLYHQESWTADYRRIRIVSIKAQ”, the “soluble on expression in E. coli” value is recorded as “not soluble”.

Regarding “SRGMTPGSRLIDYQLIDSTEELAAILGCGHPSSIHKITRVRLANDIPMAIESSHIPFELAGELNESHFQSSIYDHIERYNSIPISRAKQELEPSAATTEEANILGIQKGAPVLLIKRTTYLQNGTAFEHAKSVYRGDRYTFVHYMDRLS”, the “soluble on expression in E. coli” value was “not soluble”.

With “MHHHHHHSSGVDLGTENLYFQSNAMEPFKHPIAILGAGSWGTALALVLARKGQKVRLWSYESDHVDEMQAEGVNNRYLPNYPFPETLKAYCDLKASLEGVTDILIVVPSFAFHEVITRMKPLIDAKTRIAWGTKGLAKGSRLLHEVVATELGQVPMAVISGPSLATEVAANLPTAVSLASNNSQFSKDLIERLHGQRFRVYKNDDMIGVELCGSVKNILAIATGISDGLKLGSNARAALITRGLTEMGRLVSVFGGKQETLTGLAGLGDLVLTCTDNQSRNRRFGLALGEGVDKKEAQQAIGQAIEGLYNTDQVHALAQKHAIEMPLTFQVHRILHEDLDPQQAVQELLERSPKAE”, the “soluble on expression in E. coli” value is “soluble”.

For “MSFALGQRWISDTESDLGLGTVVALDARTVTLMFAASEENRVYARSDAPVTRVIFNVGDVVDSQQGWSLQVEQVVEDQGVYTYLGTRVDTEESGVALREIFLSNQIRFNKPQDKLFAGQIDRMDNFVLRY”, the “soluble on expression in E. coli” value is “not soluble”.

With “MKIDLNCDLGEGFGVWQMGDDAAMMQIATSVNIACGFHAGDPDIMHATVKLAKQNGVAIGAHPGFRDLHGFGRRPVPGITAAEIENLVAYQIGALQAVAALAGHKVTHVKAHGALSNVACEDDMTARAIASAIKAVDPSLVFVVLANSKLMLAGEAAGLPLAHEVFADRAYEDDGNLVSRKKPGAVLHDPNEIAERVLRMAQDGAVVSVTGKVIKMRTDTVCIHGDTKGAVEIARGVRRKLEASGITVAPFAGTLEHHHHHH”, the “soluble on expression in E. coli” value was “soluble”.

Turning to “MGSDKIHHHHHHMRKLGFVLFVLITAVMTAQEEPLVSNIFQDTYILDALADISAQTGIPIIADTTVTGFITMELNEVPLEQALKMILMPGGYVFKKMDGFYLVGSPDPANPAFRYLAVTKTYKLKYITTADAQELLPAVYKSYVKFNEKNNMVTITAPEEIIQEFEEDLKKIDIPIPQVKISVIVTEVSKDYSNELGLNSLDYSFGSGQEFNENWSATLGLVTGIIDVQTDVFGQILAQLKLLEEDQKAKITADPWIIVKSGEKASLFLGERQVVLLQAEGAVSRIESIDVGVSIDIQPRVMDKEELELTLSPKVSHFAGEKLGTFAVKQNELSTTLFLKNGQTVVISGATIEDSAQTSSGVPILNKIPLIRYLFGGTTKKDSQKELYIFIKAEIQGSE”, the “soluble on expression in E. coli” value is recorded as “not soluble”.

For the sequence “MASMKKSTENESTNYQYKIQELRKLLKSLLLNYLELIGVLSINPDMYERKVENIRTILVNIHHLLNEYRPHQSRESLIMLLEEQLEYKRGEIREIEQVCKQVHDKLTS”, the “soluble on expression in E. coli” value is “soluble”.

Turning to “MGSDKIHHHHHHMQTIKLYIKDWLAIHPYIQQQATDRYFVDLANRLYSTCTIREIPESIKKKLCLYTAAYFEDVISGLGLWQAFIKKHLELYDTSLPFYTIRPDYIKDEINEEDIRFIIWNTLEKAPYKHPYINPMDRNIEETSHSFFRILDEEYETAPANDTLQDFFMDFKGKENANHKLRWLFGHTYLTEPSVQEYIAQVTETDKFIIPCGPLALFLHEWIDLLTNGETECWEEIEGLYPAIPEISDEMKERNHHTYQLFTQGTNGARIVYLEGYKELHRFLTQVLQWPDDSNHTLPQMKEHKDFIMMVNSEKGILLAKDICKYISDPLNPMYDAATAAQEAFSLLTIPTKCPPDLMEYVINNHYIPDAQFPEFGERELVQKNADFIARNSLLYYYRGD”, the “soluble on expression in E. coli” value is “not soluble”.

For the sequence “VRQRTIVCPLIQNDGAYLLCKMADDRGVFPGQWAISGGGVEPGERIEEALRREIREELGEQLLLTEITPWTFSDDIRTKTYADGRKEEIYMIYLIFDCVSANREVKINEEFQDYAWVKPEDLVHYDLNVATRKTLRLKGLL”, the “soluble on expression in E. coli” value is “soluble”.

Take “GPGSMATGTSPPSLVTVPLLRAALLLRWRLLSLQFDGDSNMCVLAEDAADGLPRGTRLEMYGSNVQLVRQLSGAGEALLQPSVIGEVTATLEGALTDDTTERRGRQIVAVLSPPHLSSSLGGPEFKGNEDVEVIAQWTLSRKRVENVQRVTDTTKRDGVKNEEPPPLMENGIVFPSPRFAGLRVLRAARHSFALLLENELRERTGESEVGKVGPLAVLDVSELDCTFSRVAVQMAVERGLVLEQHMHVNFVPLTPAATATADETVRSLLRLVAHPTRGAHLDPLRPLQARCFKLGCCTFCSKGRGSAANEGSKKDEASLVSRLAGVISKIHSNGTLLVNLVGDGINHEELRQGAEMHLVEALLRADRCGVVIDEVLPAADTRGTAISFVVSLC”: the “soluble on expression in E. coli” value was “not soluble”.

For the sequence “SLKIKHEHIESVLLALAAEKGQAWVANAITEEYLRQGGGELPLVPGKDWNNQQNIYHRWLKGETNAQREKIQKLIPAVLAILPRELRHRLCIFDTLERRALLAAQDALSTAIDAHDDAVQAVYRKAHFSGGGSPSDSVVVH”, the “soluble on expression in E. coli” value is reported as “soluble”.

For the sequence “NRSLNELSLSDILIAADVEGGLHAVDRRNGHIIWSIEPENFQPLIEIQEPSRLETYETLIIEPFGDGNIYYFNAHQGLQKLPLSIRQLVSTSPLHLKTNIVVNDSGKIVEDEKVYTGSMRTIMYTINMLNGEIISAFGPGSKNGYFGSQSVDCSPEEKIKLQECENMIVIGKTIFELGIHSYDGASYNVTYSTWQQNVLDVPLALQNTFSKDGMCIAPFRDKSLLASDLDFRIARWVSPTFPGIIVGLFDVFNDLRTNENILVPHPFNPGDHESISSNKVYLDQTSNLSWFALSSQNFPSLVESAPISRYASSDRWRVSSIFEDETLFKNAIMGVHQIY”, the “soluble on expression in E. coli” value is reported as “soluble”.

Regarding “MGHHHHHHSHMKAEGKKPISKIPKKGFVEVTELTDVTYTSNLVRLRPGHMNVVLILSNSTKTSLLQKFALEVYTFTGSSCLHFSFLSLDKHREWLEYLLEFAQDAAPIPNQYDKHFMERDYTGYVLALNGHKKYFCLFKPQKTVEEEEAIGSCSDVDSSLYLGESRGKPSCGLGSRPIKGKLSKLSLWMERLLEGSLQRFYIPSWPELD”, the “soluble on expression in E. coli” value is listed as “not soluble”.

On to “MGSDKIHHHHHHVITLWGRLNSHNVKKVAWALIEMDLPHQRRDIGGQFGYTTDYLAKNPNRMVPMIEEGELALWESNAILRYLADRHAPAFRSDDPVVRAQGDKWMDWQFHFADAQRDAFLGCVRHGKDASDPAVATSATAAAGMMAILDEELARRPWLSGDRFGIADIPMGVYAHTYHSLPIERPDLPHLADWYARLRTRPGYASQVMIPLI”, for which the “soluble on expression in E. coli” value was “not soluble”.

Regarding “MKVTLPDFRRAGVLVVGDVMLDRYWYGPTCRISPEAPVPVVKVDTIEERPGGAANVAMNIASLGAVARLVGLTGIDDAARALICKLSEVRVRCDFVSVPTHPTITKLRVLSRNQQLIRLDFEEGFDGVDPTPIFERIQLALPQIGALVLSDYAKGALNSVQPMIQLARKANVPVLIDPKGSDFERYRGATLLTPNLSEFEAVVGRCKNEEELVNRGMQLVADFELSALLVTRSEQGMTLLQLGKPPLHLPTQAKEVFDVTGAGDTVIGVLAAALAAGNSLEESCFLANAAAGVVVGKLGTSTVSPIELENAIRGRAETGFGVMDEQQLKIAVAQARQRGEKVVMTNGIFDILHAGHVSYLANARKLGDRLIVAVNSDASTKRLKGEKRPVNPLEQRMVVLGALEAVDWVVPFEEDTPQRLIADILPDLLVKGGDYKPHEIAGSEEVWAAGGEVKVLNFEDGVSTTNIIQSIKNGRG”, the “soluble on expression in E. coli” value was “not soluble”.

For the sequence “MGSDKIHHHHHHMLEPQDQKKLDELFSSMQEANGCFLGYPFAKDFDYEPLWRFMSLTGNNLGDPFEPGTYRVNSHAFECDVVDFFARLFRACSCEVWGYVTNGGTEGNIYGLYLARELYPNAVAYFSQDTHYSVSKGVRLLRLEHSVVRSQSNGEINYDDLAQKATRYRTRPAVVVANIGTTMKEGKDDTLKIRAVLHDVGISAIYVHSDAALCGPYAPLLNPKPAFDFADGADSITLSGHKFLGAPMPCGVVLSHKLHVQRVMRNIDYIGSSDTTLSGSRNAFTPIILWYAIRSLGIEGIKQTFQQCERLAAYTADELNVRGVSAWRNPNALTVVLPPVEDSIKTKWQIATQDVSHLVVTPGTTKQQADALIETISNRNR”, the “soluble on expression in E. coli” value is listed as “not soluble”.

As for “MGSDKIHHHHHHMESFNEYHIDPKQFPFLKNFQDNWQVIRDEYTSFINNASNEELKFTYDVLGPKSQTIKTKGKSKYSAFGILFQGMFIEKYIQAHQIKYPDYGPDEASKKALVLREKYFTNLANVIKDVNLIEDDIIRNVYYGTFHPGLDIKLHVNYNPHTNRGYLGLIVPEGDVAMKICHDQLYWHEGKFLVLDHSYPHCPHNYTSYDRTVLVVDFFKPDKPRDEVIEFEKEQVTQRMQDNPYSLGVFGKSDKAKEEDFIKYGLAHQLEWDKALI”, the “soluble on expression in E. coli” value is “not soluble”.

Consider “MGSDKIHHHHHHMIKLKTFGSFTVGNDISSVQEGAWRSEKLEKLFVYLAMNRNRGVCIEDISEAIWQVEEETDNPVGALKNLAYRLRKALRDASFDEECIVSVRGGLYKWNDDVEVTIDVEEFDRYINEAEMAFCRSKETAIESYEKAIALYHGDFLPLRTDTHWFMTLNAFYHSRYVNTVKALAKLYIDTGCYEKLEQLCIRAIVYERSDEQIYSYLIMARMRTKKVQMAFDTYETAKAIMDKDLGVRKTVMLNKVYEELLSVTKGVSSYNIDEVKEDINEESMEGVFMCGYPVFKEIYHLEVRKSARSTIPESLVLVTVVPMYSSQPDKNHSQMKDSMHTLERALRKCLRVGDVAAKYSDSQYIVLLSKCSCDTASDVMKRIIDRFNHTCDTHSNMTIHFDIEPVSCYSSFVSDK”, for which the “soluble on expression in E. coli” value is “not soluble”.

As to “MGSDKIHHHHHHMNVRQLEAFQAVMSAGSLTAAAGLLSVSQPAVSQLIAQLEGNCGFSLFDRAGTKMRPTREAEVLHAEVQRMFIGVGRVANVAKALRDQTWGALSIASFPVLTRRMLPNIVTSFCKTRPDVKFSVESMRSRSLVDAVATQQVDLGFSILPGDRPEVDSTHVCTLRGLCILPKGHRLSKRRLIRAKDLDGEAFVALGPQDHSRFQIDKIFEEADVQRRIQVEVGQSETACSFVANGVGVAVVDPISVWNNAGADFVVCAFEPKMEFEIWLIRPKTARPFALIDTFSDYACAELMRLKEEEIDIRQPRG”, the “soluble on expression in E. coli” value was “not soluble”.

Regarding “TTTVGLVCKDGVVMATEKRATMGNFIASKAAKKIYQIADRMAMTTAGSVGDAQFLARIIKIEANLYEIRRERKPTVRAIATLTSNLLNSYRYFPYLVQLLIGGIDSEGKSIYSIDPIGGAIEEKDIVATGSGSLTAYGVLEDRFTPEIGVDEAVELAVRAIYSAMKRDSASGDGIDVVKITEDEFYQYSPEEVEQILAKFRK”, the “soluble on expression in E. coli” value is on record as “soluble”.

Regarding “MGHHHHHHSHMDVPYLINCLVFLFCFSKSNEHSSEYPFVRDLSLEGRLLAKNICTFNIHIHIYTHFFLRQRFTLSPRLKCSGMIIVHCSLYLLGSSNPPT”, the “soluble on expression in E. coli” value is given as “not soluble”.

The record behind these values is the DeepSol protein solubility set.
